From patent US20140294731A1 (AC IMMUNE S A, published 2014)
Where no end group is shown, it is not given here. [ ]: non-standard residue; d: D form. The star is where a group is joined. Biotin = O=C1N[C@H]2[C@H](CS[C@H]2CCCCC(=O)*)N1; pS = N[C@@H](COP(=O)(O)O)C(=O)O; LC linker = not defined here

T1: T3.30: Biotin-LC linker-GVYKS[PO3H2]PVVSGDTS[PO3H2]PRHL-NH2 (reading uncertain; also: printed as Biotin-LC linker-GVYKS[PO3H2]PVVSGDTS[PO3H2]PRHL-NH2)
T1 construct: Human Tau 393-408 with an added N-terminal Gly; two lots used: MI89P9-P12-2 (64% pure) and MI89P9-P12-3 (87% pure); also called Phospho-tau peptide; phosphopeptide T3.30
T1 peptide: {Biotin-LC linker}-GVYK[pS]PVVSGDT[pS]PRHL-NH2

T2: non-phosphorylated Tau peptide T3.6: Tau393-408 (human)
T2 construct: Synthetic peptide (PolyPeptide Laboratories); also called non-phospho counterpart of the antigenic peptide; non-phospho-peptide
T2 peptide: VYKSPVVSGDTSPRHL

T3: pTau peptide T3.5: Tau393-408 [pS396/pS404] (human)
T3 construct: Synthetic peptide (PolyPeptide Laboratories), coated on ELISA plates at 10 µg/mL; also called Tau p-peptide; T3: Tau 393-408 [pS396, pS404]
T3 peptide: VYK[pS]PVVSGDT[pS]PRHL


Key:
[1] = biological target: T1, T3.30: Biotin-LC …; assay: SPR (Biacore X), T3.30 on streptavidin chip, antibody injected, 1:1 Langmuir fit; peptide lot 64% pure
Protocol: (§1) All SPR experiments were carried out on a Biacore X instrument (GE Healthcare). Sensor chip SA (Streptavidin derivatized carboxymethyl dextran) was purchased from GE Healthcare. Running buffer was PBS (Dulbecco's PBS, Sigma D8537). Non-covalently bound Streptavidin was firstly removed from the sensor surface by injecting 8 pulses (each ˜1 μL) of 16 mM NaOH (aq). Phospho-tau peptide was then solubilized in PBS to give a final peptide concentration of 1 μM and then injected (35 μL) over flow cell (fc) 2 of the sensor chip at 5 μl/min. After coupling, a final immobilization level of 130 RUs was obtained. To study the binding of the antibodies to the chip surface, several concentrations of antibodies were prepared by serial 2-fold dilutions with running buffer. The injections were performed over both fc 1 and 2 at a flow rate of 50 μL/min for 120 s. Flow cell 1 was not derivatized and responses of fc 1 were subtracted from fc 2 to correct for instrument noise and bulk refractive changes. After each injection, the surfaces were washed immediately with running buffer for 100s. To remove any remaining bound antibody from the chip, surface regeneration was performed by injecting 1 μL of 10 mM Glycine-HCl pH 1.7. Kinetic analyses were performed using algorithms for numerical integration and global analysis using BIAevaluation 3.0. The sensograms obtained for injections of antibody at different concentrations were overlaid and the baselines adjusted to zero. For curve fitting, all data were fit simultaneously to a 1:1 homogeneous (Langmuir) model.

[2] = biological target: T1, T3.30: Biotin-LC …; assay: SPR (Biacore X), T3.30 on streptavidin chip, antibody injected, 1:1 Langmuir fit; peptide lot 87% pure
Protocol: as §1

[3] = biological target: T2, non-phosphorylated Tau peptide T3.6: …; assay: hybridoma supernatant ELISA screen (conclusion of Example 1)
Protocol: (§2) Hybridomas ELISA screen was performed on pTau peptide (ACl-35, T3.5: Tau393-408[pS396/pS404; PolyPeptide Laboratories, Hillerød, Denmark), the corresponding non-phosphorylated Tau peptide (T3.6: Tau393-408, PolyPeptide Laboratories), phosphorylated full-length (441aa) Tau protein (pTau protein, Vandebroek et al., 2005) and full-length (441aa) Tau protein (Tau protein, SignalChem, Richmond, Canada). Finally Bovine Serum Albumin (BSA) was used as negative control.
(§3) Plates were coated with 10 μg/ml of corresponding Tau peptide and 1 μg/ml of corresponding Tau protein overnight at 4° C. After washing each well with PBS-0.05% Tween 20 and blocking with 1% BSA in PBS-0.05% Tween 20, undiluted hybridoma supernatant or medium negative control were added to the plates and incubated at 37° C. for 2 hours. After washing plates were incubated with an alkaline phosphatase (AP)-conjugated anti-mouse IgG total antibody (Jackson Laboratories, Baltimore, Pa., USA) for 2 hours at 37° C. After washing plates were incubated with pNPP (para-nitro-phenyl-phosphate), the phosphatase substrate for AP, and read at 405 nm using an ELISA plate reader. Results are expressed as O.D. (Optical Density).

[4] = biological target: T3, pTau peptide T3.5: Tau393-408 …; assay: as above
Protocol: as §2, §3

[5] = biological target: T4, full-length (441 aa) Tau protein (SignalChem) (human, UniProt P10636 1-758); assay: ELISA, plate-coated protein; grade (+ Good binding)
T4 construct: Bought recombinant protein; also called Full-length Tau; non-phospho full-length Tau protein
T4 sequence (P10636 other isoform, or with tags, fused parts or gaps limits assumed): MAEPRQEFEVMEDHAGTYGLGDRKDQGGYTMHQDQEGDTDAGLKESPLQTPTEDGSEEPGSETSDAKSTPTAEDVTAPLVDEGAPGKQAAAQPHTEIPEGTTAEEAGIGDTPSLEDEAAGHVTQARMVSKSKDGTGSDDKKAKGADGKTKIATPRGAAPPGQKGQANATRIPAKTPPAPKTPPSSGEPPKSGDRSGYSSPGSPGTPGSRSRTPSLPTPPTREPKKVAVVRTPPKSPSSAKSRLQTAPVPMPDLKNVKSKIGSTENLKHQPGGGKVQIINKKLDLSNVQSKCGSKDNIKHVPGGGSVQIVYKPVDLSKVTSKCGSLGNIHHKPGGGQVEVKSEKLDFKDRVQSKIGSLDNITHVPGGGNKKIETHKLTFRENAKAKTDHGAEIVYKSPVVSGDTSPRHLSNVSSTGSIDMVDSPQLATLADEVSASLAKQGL

[6] = biological target: T5, phosphorylated full-length (441 aa) Tau protein (human, UniProt P10636 1-758, phosphorylated; the sites are not stated (preparation cited as Vandebroek et al., 2005)); assay: ELISA, plate-coated protein
T5 construct: Full-length 441 aa Tau; Coated at 1 µg/mL; also called pTau protein; Full-length pTau
T5 sequence (P10636 other isoform, or with tags, fused parts or gaps limits assumed): as above

[7] = biological target: T4, full-length (441 aa) Tau protein …; assay: ELISA, plate-coated protein

Row | Kd [1] | koff [1] | kon [1] | Kd [2] | koff [2] | kon [2] | binding result [3] | binding result [4] | binding result [5] | Binder | binding result [6] | binding result [7]
1 | ≤ 6 nM | 9.3e-06 s⁻¹ | 1600 M⁻¹ s⁻¹ | 82 nM | 0.0018 s⁻¹ | 22000 M⁻¹ s⁻¹ |  |  |  | ACI-35-1D2-Ab1 (antibody, IgG2a, V domains shown, Biotinylated (-BT) in the AlphaLISA; also called ACl-35-1D2-Ab1; hybridoma A6-1D2-12) VH: not shown VL: NILMTQSPSSLAVSAGEKVTMSCKSSQSVLYSSNQKNYLAWYQQKPGQSPKLLIYWASTRESGVPDRFTGSGSGTDFTLTISSVQAEDLAVYYCLQYLSSLTFGAGTKLELK |  | 
2 |  |  |  | 38 nM | 0.001 s⁻¹ | 27000 M⁻¹ s⁻¹ |  |  |  | ACI-35-2A1-Ab1 (antibody, IgG2b, V domains shown, Biotinylated (-BT) in the AlphaLISA and as detector in the Setup 1 ELISA; also called ACl-35-2A1-Ab1; hybridoma A4-2A1-18) VH: EVQLQQSGPELVKPGASVKISCKASGYTFTDYYMNWVKQSHGKSLEWIGDINPNNGGTSYNQKFKGKATLTVDKSSSTAYMELRSLTSEDSAVYYCVREGRFAYWGHGTLVTVSA VL: DIVMTQAAPSVPVTPGESVSISCRSSKSLLHSNGNTYLYWFLQRPGQSPQLLIHRMSNLASGVPDRFSGSGSGTAFTLRISRVEAEDVGVYYCMQHLKSPYTFGGGTKLEIK |  | 
3 |  |  |  | 10 nM | 0.00023 s⁻¹ | 24000 M⁻¹ s⁻¹ |  |  |  | ACI-35-2G5-Ab2 (antibody, IgG2b, V domains shown, also called ACl-35-2G5-Ab2; ACl-35-2G5-AB2) VH: EVQLQQSGPELVKPGASVKISCKASGFTFTDYYMNWVKQSHGKSLEWIGDINPNNGGTSYHQKFKGKATLTVDKSSSTAYMELRSLTSEDSAVYYCVREGRFAYWGQGTLVTVSA VL: DIVMTQSQKFMSTSVGDRVSVTCKASQNVGTNVAWYQQKPGQSPKALIYSASYRYSGVPDRFTGSGSGTDFTLTISNVQSEDLAEYFCQQYNSYPYTFGGGTKLEIK |  | 
4 |  |  |  | 2 nM | 3.8e-05 s⁻¹ | 17000 M⁻¹ s⁻¹ |  |  |  | ACI-35-2G5-Ab3 (antibody, IgG2b, V domains shown, Biotinylated (-BT) in the AlphaLISA and as detector in the Setup 1 ELISA; also called ACl-35-2G5-Ab3; ACl-35-2G5-AB3) VH: EVQLQQSGPELVKPGASVKISCKASGFTFTDYYMNWVKQSHGKSLEWIGDINPNNGGTSYHQKFKGKATLTVDKSSSTAYMELRSLTSEDSAVYYCVREGRFAYWGQGTLVTVSA VL: DIVMTQSQKFMSTSVGDRVSVTCKASQNVGTNVAWYQQKPGQSPKALIYSASYRYSGVPDRFTGSGSGTDFTLTISNVQSEDLAEYFCQQYNSYPYTFGGGTKLEIK |  | 
5 |  |  |  |  |  |  | binds | binds |  | ACI-35-4A6-Ab2 (antibody, V domains shown, also called ACl-35-4A6-Ab2; hybridoma A4-4A6-48) VH: EVQLQQSGPELVKPGASVKISCKASGYTFTDYYMNWVKQSHGKSLEWIGDINPNNGGTSYNQKFKGKATLTVDKSSSTAYMELRSLTSEDSAVYYCVREGRFAYWGHGTLVTVSA VL: DIVMTQAAPSVPVTPGESVSISCRSSKSLLHSNGNTYLYWFLQRPGQSPQLLIYRMSNLASGVPDRFSGSGSGTAFTLRISRVEAEDVGVYYCMQHLKSPYTFGGGTKLEIK |  | 
6 | 16 nM | 0.0031 s⁻¹ | 200000 M⁻¹ s⁻¹ | 15 nM | 0.0017 s⁻¹ | 110000 M⁻¹ s⁻¹ |  |  | binds | ACI-35-4A6-Ab1 (antibody, IgG2b, V domains shown, also called ACl-35-4A6-Ab1; hybridoma A4-4A6-18) VH: QVQLQQPGAELLKPGASVKLSCKASGYTFTSYWMHWVKQRPGRGLEWIGRIDPNSDRTKYNEKFKRKATLTVDKSSSTAYMQLSSLTSEDSAVYYCARDDYAWFAYWGQGTLVTVSA VL: DVLMTQTPLSLPVSLGDQASISCRSSQSIVHSNGNTYLEWYLQKPGQSPKLLIYKLSNRFSGVPDRFSGSGSGTDFTLKISRVEAEDLGVYYCFQGSHVPPTFGGGTKLEIK |  | 
7 | 10 nM | 0.0053 s⁻¹ | 480000 M⁻¹ s⁻¹ | 70 nM | 0.0022 s⁻¹ | 32000 M⁻¹ s⁻¹ |  |  |  | ACI-35-2G5-Ab1 (antibody, IgG2a, V domains shown, also called ACl-35-2G5-Ab1; ACl-35-2G5-AB1) VH: QVQLKQSGAELVRPGASVKLSCKASGYTFTDYYINWVKQRPGQGLEWIARIYPGRGNIYYNEKFKGKATLTAEKSSSTAYMQLSSLTSEDSAVYFCARFWDVTYWGQGTLVTVSA VL: DVLMTQTPLSLPVSLGDQASISCRSSQSIVHSNGNTYLEWFLQKPGQSPKLLIYKVSNRFSGVPDRFSGSGSGTDFTLKISRVEAEDLGVYYCFQGSHVPYTFGGGTKLEIK | no binding (tested: up to 20 µg/mL antibody) | no binding (tested: up to 20 µg/mL antibody)
